Measurements as given in PMC2815668, “Pseudo-merohedral twinning and noncrystallographic symmetry in orthorhombic crystals of SIVmac239 Nef core domain bound to different-length TCRζ fragments” (Acta Crystallographica Section D: Biological Crystallography, 2010).

Target: T1, SIVmac239 Nef core domain, GS-Nef (Asp95–Ser235) (simian immunodeficiency virus, isolate …, UniProt P31818 95-235)
T1 construct: source: E. coli BL21 (DE3), purified (Ni-NTA under 8 M urea, dialysis, thrombin cleavage, anion exchange, SEC)
T1 sequence: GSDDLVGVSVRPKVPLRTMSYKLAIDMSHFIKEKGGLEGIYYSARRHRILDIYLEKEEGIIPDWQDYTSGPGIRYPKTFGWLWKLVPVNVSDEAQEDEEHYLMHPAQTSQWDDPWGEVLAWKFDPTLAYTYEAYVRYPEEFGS
Experiment: not stated; unpublished results; stoichiometry of the complex
Settings: both partners purified

B1: TCRζDP1 (Leu51–Asp93), N-terminal acid-cleavage fragment of the TCRζ cytoplasmic domain (domain or fragment)
chain: LRVKFSRSADAPAYQQGQNQLYNELNLGRREEYDVLDKRRGRD
notes: also called longer TCRζ polypeptide; source: acid cleavage of purified TCRζcyt (30% acetonitrile, 0.5% TFA, 48 h, 323 K), isolated by reverse-phase chromatography
stoichiometry N: 1
